Test results reported in the supplement of paper PMC9170038.

Tested on: MS2 coat protein
Experiment: apparent KD of MS2 coat protein; designed switch direction (-1 OFF switch, 1 ON switch): 1; higher = weaker reporter binding
Outline: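 Three titration conditions were used: no input, 200 uM small-molecule ligand, and an oligonucleotide input. In each, SNAP-549-labelled MS2 coat protein was raised from 0.7 or 1.5 nM, doubling, to 3 µM over designed RNA switches transcribed on Illumina chips by stalled E. coli RNA polymerase. Curve fits of normalised cluster fluorescence gave values whose per-design median over clusters is the apparent KD.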

[1] = input ligand: microRNA oligo, concentration not stated
[2] = Eterna round: R95, input ligand: FMN 200 uM
[3] = Eterna round: R95, input ligand: microRNA oligo, concentration not stated
[4] = Eterna round: R95, input ligand: none

Sequence	apparent KD of MS2 coat protein (input ligand: FMN 200 uM)	apparent KD of MS2 coat protein [1]	apparent KD of MS2 coat protein (input ligand: none)	apparent KD of MS2 coat protein [2]	apparent KD of MS2 coat protein [3]	apparent KD of MS2 coat protein [4]
UCUGCAAGAACAGGAUAUGGGUUCAGAGCGGGAGUGCGCUUUGACACAUGAGGAUCACCCAUGUCCCAGAAGGGUUCAUGCGGC [Eseseste] (Eterna round: R96, puzzle: Same State NG 2)	62.7 nM	484 nM	364 nM	–	–	–
CGGGAAAUCGUAGGAUAUCUAGGAUAUGAACGAGGAUCACCCGAGCAGCAUCAGCGCAUCAGAGGAGAGAAGGACGAUGAUGCG [pwkr ssNG2 2F5 2FMN.17] (Eterna round: R96, puzzle: Same State NG 2)	327 nM	273 nM	65.7 nM	–	–	–
GCUGGAAACCACAUGAGGAUCACCCAUGUUCCGGAAACGGCACAGGAUAUCUGUCCGAAAAGGUCAGAGAAGGGUGAAACCAGC [Fiskers NG3ss - 83] (Eterna round: R96, puzzle: Same State NG 3)	263 nM	114 nM	188 nM	–	–	–
GGUCCAGCUUUUGCUGGUCCUUCGCUUGCACAUGAGGAUCACCCAUGUCGUGUACAUGCUUGGUGCCCGUCUUUUUU [Photon Torp-16] (puzzle: Sensor for hsa-mir-208a)	–	–	–	137 nM	44.9 nM	229 nM
GGUGCAAUAAACGCCUACAUGAGGAUCACCCAUGUAUGUAGGCAGGAUAUCGUUUGCAAAGCAAACGAGAAGGGCUAUAGUACC [Mat - Same State NG 3 - JL Mod - D44] (Eterna round: R96, puzzle: Same State NG 3)	56.2 nM	123 nM	161 nM	–	–	–
AACAUGAGGAUCACCCAUGUCAGGCCGCCGGCCUACAUGAGGAAGGAUAUAGCCUCGAAAAUUGGCUAGAAGGUCCUCAUGAAU [Letemaar] (Eterna round: R96, puzzle: Same State NG 3)	115 nM	4.24 nM	26.1 nM	–	–	–
GGAGAGAGAGCGCAGGAUAUUCGAGGAGAAACAUGAGGAUCACCCAUGUGAGAGAGAGAGGAGAAGGAGAAGGGUGAGAGAGAGG [Altered State 2-14 - Jieux - Same State 2] (puzzle: Same State 2)	–	–	–	147 nM	34.9 nM	32.6 nM
CUAUCUACAGGUUUCAGUGCUCGUCUUAUACAUGAGGAUCACCCAUGUUAUAGCCCGGUGCUUGCGCUGGGCUGAUU [JL ViennaUCT Tearor mod 3] (puzzle: Sensor for hsa-mir-208a)	–	–	–	31.4 nM	14.8 nM	39.3 nM
UGUUGUAUUACAGGAUAUCUAUUAGUUUUGUUUAGAGAAGGGUAUUCACAUGAGGAUCACCCAUGUAUAUACGAGGAAGUUGUG [JMF's solution 97] (Eterna round: R96, puzzle: Same State NG 1)	–	40.8 nM	–	–	–	–
GGUGCACGGUGACGUGCACGGUAGUGCGUACAUGAGGAUCACCCAUGUCAUGUAGGAGUUACUUGUUCGUCUUGAAC [SENSOR #2] (puzzle: Sensor for hsa-mir-208a)	–	–	–	28.7 nM	22.8 nM	25.4 nM
UUAAUAAUGUAAGGAUAUACAUGAGGAUUUCUCGUAGAAGGUACAUUACAUGAGGAUCACCCAUGUGGGUGUCAGAAGACGCCA [Mat - Same State NG 1 - JL mod - D13] (Eterna round: R96, puzzle: Same State NG 1)	143 nM	953 nM	275 nM	–	–	–
AUGAAGAAUUAAGGAUAUUGAAUACAUAUGUUUAACAUGAGGAUCACCCAUGUGGGUUGCGGUAUCGAGAAGGUAAAAUAAUAG [Mat - same State NG 2 - JL mod - D91] (Eterna round: R96, puzzle: Same State NG 2)	162 nM	79.4 nM	136 nM	–	–	–
AACCGGGAGAAGCAGGAUAUUGCCUCUUCAACAUGAGGAUCACCCAUGUAAGUAAAUUGACGAUACAAGAAGGGCUGCUCCUUAC [Raatgees] (Eterna round: R96, puzzle: Same State 2)	–	79.1 nM	–	–	–	–
GGUCCAGCCUGAGCUGGACCGAAGCGUGUACAUGAGGAUCACCCAUGUCAUGUACAGGCUUUUUGCUCGUCUUAUUG [JL-shm-2.11 JL Mod] (puzzle: Sensor for hsa-mir-208a)	–	–	–	46.5 nM	20.6 nM	72.9 nM
AAAUAGCAUGGAAACAUGCUAAAAACUGUACAUGAGGAUCACCCAUGUCAUGUGUAGGCUUUUUGUUCGUCUUAUAA [Effort 12] (Eterna round: R96, puzzle: Sensor for hsa-mir-208a)	25.5 nM	12.3 nM	27.8 nM	–	–	–
